Molecular target: T1, PYK-NN (PYK2 aa 2-285) fused to the LexA DNA binding domain (UniProt P0A7C2 1-202; Q14289 2-285)
T1 construct: Yeast two-hybrid bait
Assay: yeast two-hybrid with heterologous baits
Protocol: The yeast strain L40 containing the reporter genes HIS3 and β-gal under control of upstream LexA-binding site, was used as a host for the two-hybrid screening. […] Yeast strain that express the LexA-PYKN fusion protein was transfected with human brain cDNA library (Clontech #HL404AB) fused to GAL4 transcriptional activation domain. Transformants were plated on agar selection medium lacking Uracil (Ura-), Tryptophane (Trp-), Leucine (Leu-) and Histidine (His-). Resulting colonies were isolated and retested for growth on -Ura-Trp-Leu-His plates and for β-galactosidase activity. Plasmid DNA was purified from colonies that were His+, β-gal+ and used for retransformation of yeast strains expressing heterologous baits to determine the specificity of the interaction.
The yeast two-hybrid system was used to identify proteins that interact with the amino-terminal domain of PYK2. The N-terminal domain of PYK2 was fused to the LexA DNA binding domain and screened a human brain cDNA library. […] The specificity of the interaction was further determined by transformation of this clone into a yeast strain expressing heterologous baits. An interaction was detected in yeast strain expressing either the PYK-N terminal domain, or a shorter version of PYK-N that was missing 48 amino acids from its C-terminal end.

T1 sequence (P0A7C2 other isoform, or with tags, fused parts or gaps limits assumed): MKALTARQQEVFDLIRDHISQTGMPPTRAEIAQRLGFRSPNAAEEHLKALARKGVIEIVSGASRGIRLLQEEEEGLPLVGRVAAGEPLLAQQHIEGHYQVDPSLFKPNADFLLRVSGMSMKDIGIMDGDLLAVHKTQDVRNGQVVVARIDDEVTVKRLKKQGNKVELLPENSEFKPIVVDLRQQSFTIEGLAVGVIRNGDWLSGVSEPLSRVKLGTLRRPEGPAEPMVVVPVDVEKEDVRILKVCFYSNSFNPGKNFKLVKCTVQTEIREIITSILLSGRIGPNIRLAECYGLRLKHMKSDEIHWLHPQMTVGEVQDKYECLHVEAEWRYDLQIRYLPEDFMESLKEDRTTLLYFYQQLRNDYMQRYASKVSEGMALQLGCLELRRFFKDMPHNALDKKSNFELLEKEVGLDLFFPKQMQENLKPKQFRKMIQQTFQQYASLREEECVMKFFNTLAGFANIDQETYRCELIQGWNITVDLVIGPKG

binding result: no binding
B1: original two hybrid clone containing amino acids 627-975 of hrdgB1, fused to the GAL4 transcriptional activation domain (other, not shown: large carriers)
chain: VKLRNVTANHRANDVIAAEDGPQVLVGRFMYGPLDMVALTGEKVDILVMAEPSSGRWVHLDTEITNSSGRITYNVPRPRRLGVGVYPVKMVVRGDQTCAMSYLTVLPRGMECVVFSIDGSFAASVSIMGSDPKVRPGAVDVVRHWQDLGYMILYITGRPDMQKQRVVSWLSQHNFPQGMIFFSDGLVHDPLRQKAIFLRNLMQECFIKISAAYGSTKDISVYSVLGLPASQIFIVGRPTKKYQTQCQFLSEGYAAHLAVLEASHRSRPKKNNSRMILRKGSFGLHAQPEFLRKRNHLRRTMSVQQPDPPAANPKPERAQSQPESDKDHERPLPALSWARGPPKFESVP
notes: The printed end may count the stop codon; also called GAL10-rdgB1

Reference: US6576442 (SUGEN, dated 2003)
